# In the supplement of paper PMC10126150:
# ± gives the standard deviation of the averaged measurements.
# System: ATP
# Test: switch fluorescence ratio, 500 uM ATP over buffer (Cy3 cluster intensity, sum of 5 cycles each) (fold (ratio)); higher = stronger signal-on switching upon ATP binding; sequences stand for … in TCGTCGGCAGCGTCAGATGTGTATAAGAGACAGTTTTTTTTTTTTTTTTTTTTTTTTT…TC
# Conditions: aptamer strand: ATP DNA aptamer (quencher-CACCTGGGGGAGTATTGCGGAGGAAGG + anchor), 100 nM annealed; ATP concentration: 500 uM
# Procedure, shortened: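 Cy3-labelled switching-strand clusters on a modified Illumina MiSeq flow-cell were annealed to 100 nM quencher-labelled ATP aptamer, imaged in selection buffer, then imaged after 15 min with 500 uM ATP at 22 °C. Five buffer/ATP cycles ran, with NaOH stripping and re-annealing between them. The fluorescence ratio is summed target-cycle over summed buffer-cycle Cy3 intensity per cluster, averaged per switch-domain sequence. Clusters outside 100-1000 RFU were excluded.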
# 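Also: ATP exposure 15 min at 22 °C before imaging.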
row,Sequence,switch fluorescence ratio
1,TTGGTGTCGC,1.016 ± 0.0034
2,TGTTGACAGT,1.01 ± 0.021
3,GTTTGCTTAG,0.986 ± 0.024
4,TACCTTGAGC,0.9999 ± 0.0034
5,GGTAGATGGT,1.01 ± 0.012
6,CATATGAGGG,0.991 ± 0.07
7,ATAAGGGGAG,0.999 ± 0.027
8,CAATATGAAT,1.02 ± 0.0057
9,GGGAGGAGTG,0.98 ± 0.029
10,GTTATTACGA,1.005 ± 0.0041
11,GTTAACTCCA,1.02 ± 0.022
12,GTTTTCAGTA,0.982 ± 0.0022
13,TGGGGATTAA,0.991 ± 0.013
14,TTTCGGATCA,0.9334 ± 0.0044
15,ATTGTGCGTA,0.9711 ± 0.0057
16,AAGGTCGTAT,0.9922 ± 0.009
17,TGGATCATAG,0.999 ± 0.038
18,GGGATAGAAG,0.971 ± 0.019
19,GATCGAGGGA,1.04 ± 0.14
20,TGGGTTCTTG,0.998 ± 0.044
21,AAGGCACCGT,1.03 ± 0.038
22,ATCGGGGGTC,0.946 ± 0.032
23,CGGGGGGGAG,1.01 ± 0.067
24,TTTGCACGTA,0.991 ± 0.084
25,ATAGGAGTGG,0.964 ± 0.053

row,Sequence,switch fluorescence ratio
1,TTTGCGAGAG,1.01 ± 0.045
2,CGGTTACCGT,0.986 ± 0.013
3,GTACTTCATC,1.06 ± 0.058
4,TTAAACAAGG,1.01 ± 0.012
5,GTGGGCCTTT,0.987 ± 0.015
6,AAGGGTCTGG,0.986 ± 0.024
7,CTTATTGGGT,0.993 ± 0.011
8,AGTAGACGAC,1.03 ± 0.042
9,AGTAAGGGCG,0.992 ± 0.039
10,ATGGCTTGGT,0.99 ± 0.025
11,GGGGGATTAC,1.06 ± 0.083
12,TTTTTGCTGA,1.01 ± 0.032
13,CGATAATCGT,1.002 ± 0.0098
14,TTAAGCGTAG,1.01 ± 0.013
15,ATCGCATATG,1.08 ± 0.053
16,GCATGTGTGG,0.995 ± 0.065
17,CCCCTGACAA,1.79 ± 0.059
18,CCGCGGGGGG,1.08 ± 0.088
19,CATCGAGCAA,3.77 ± 3.5
20,TTTTACGCCG,1.09 ± 0.041
21,CGGTGAGGGA,0.978 ± 0.044
22,GCATTGGTTT,0.982 ± 0.011
23,CAAGTTGTAC,1.1 ± 0.019
24,TTTAGCACGA,1 ± 0.024
25,AACCTTAGGA,1.05 ± 0.017

row,Sequence,switch fluorescence ratio
1,AAGTACCCGG,1.14 ± 0.026
2,ATAGACTGAG,0.983 ± 0.012
3,ATTAAGTCGC,1.01 ± 0.022
4,CGCTGACGGA,1.01 ± 0.053
5,AAGAGTTCGT,0.955 ± 0.023
6,TTGGGAAAGG,1.002 ± 0.0053
7,GTCAGGGGGA,1.07 ± 0.14
8,TAATAAGGGG,1.02 ± 0.028
9,GTGGGGGGGT,0.992 ± 0.026
10,TTGGTTTTAA,1.03 ± 0.014
11,GCTTCAAGAC,1.58 ± 0.0071
12,TTGGGGGCCC,1.01 ± 0.033
13,TTACGTTCTT,1.048 ± 0.0096
14,AAATTTATTT,0.9932 ± 0.0038
15,GGGACTAGAG,0.9744 ± 0.0061
16,AAGGTTTAGT,1 ± 0.024
17,TTTAGGGATT,1.03 ± 0.037
18,ATCGAGGGGT,0.955 ± 0.037
19,ACTTTCTTAC,1.12 ± 0.017
20,GGTTCATCGG,0.9912 ± 0.0029
21,TCCCATTTTT,1.01 ± 0.038
22,ATATAACAGG,1.03 ± 0.048
23,GGTGTAGCGC,1.015 ± 0.0075
24,ATCACGATGG,1.03 ± 0.019
25,CGGCGTGAGC,0.993 ± 0.067

row,Sequence,switch fluorescence ratio
1,AGTACTGACC,1.23 ± 0.037
2,TTTGTATTCC,0.991 ± 0.1
3,GGTGGAATCT,1.02 ± 0.052
4,GGCCCCCGGC,0.969 ± 0.026
5,TGCGTTACAG,1.01 ± 0.044
6,ATTGGTAACG,0.9981 ± 0.0037
7,AAGGGGTATT,1.01 ± 0.027
8,GATTGAATTG,0.948 ± 0.027
9,TGTTACCGG,1.004 ± 0.0037
10,CGCTATTGTG,1.01 ± 0.021
11,TAATATTAAC,1.02 ± 0.03
12,TTTTATTATT,0.967 ± 0.01
13,GGGGGCCTTT,0.995 ± 0.02
14,CTATTGGCAA,1.06 ± 0.022
15,CAATACAGTC,1.03 ± 0.011
16,GGGTGGATGA,1.03 ± 0.042
17,TCTCTATTT,0.965 ± 0.048
18,GCCGGTTTTG,1.01 ± 0.017
19,ATCCGGGGGA,1.04 ± 0.11
20,ATGTTAGGGT,0.988 ± 0.033
21,ATACGCTGGT,0.9993 ± 0.0042
22,AAATTGGGAA,1.01 ± 0.035
23,GATTTTTTTT,0.989 ± 0.029
24,GGGGTAAACA,0.99 ± 0.038
25,TTAATTACGG,1.01 ± 0.017

row,Sequence,switch fluorescence ratio
1,ATTAAAAGGT,1 ± 0.026
2,GGATAATATT,1.05 ± 0.026
3,AGGGGGGTCA,0.976 ± 0.032
4,TGCAAGCGAC,2.61 ± 0.18
5,CTTTTTAATG,0.98 ± 0.028
6,AGTTGTGGAG,0.986 ± 0.018
7,TCTACGCACT,2.62 ± 0.15
8,TTGAGTGTTG,1.01 ± 0.049
9,GGGACATGGG,0.972 ± 0.041
10,CTTTCCGAAG,2.72 ± 0.03
11,TAAAGACCGA,1.08 ± 0.048
12,GTTGCTGATT,1.02 ± 0.04
13,ATGGGAGGGC,0.9698 ± 0.0059
14,TTTTGTTGTC,0.984 ± 0.037
15,GGCGCTGAGT,1.017 ± 0.01
16,CCACCATTTT,1.13 ± 0.12
17,ACAGGGGAAT,1.01 ± 0.012
18,GCACGATGGT,0.972 ± 0.01
19,GTTTTTATAG,0.992 ± 0.014
20,CGTTGTAGGA,0.999 ± 0.016
21,TAATTACCTC,1.04 ± 0.013
22,TAAAGGAAAG,1.02 ± 0.03
23,AGGGACTAGG,0.994 ± 0.011
24,TTTGAAAGGT,1.04 ± 0.072
25,TACGCCGGAA,1.33 ± 0.37

row,Sequence,switch fluorescence ratio
1,TTCCTTGCGG,1.08 ± 0.057
2,TTTCCACAT,0.9719 ± 0.0091
3,TTAGCTTGTA,1.07 ± 0.088
4,CGCTTATGCA,1.02 ± 0.02
5,TAGTGGCTGG,1 ± 0.026
6,ACTCATGTT,0.996 ± 0.012
7,GTTCTTGGAG,0.9991 ± 0.0031
8,AGGCCAGGGT,1.04 ± 0.021
9,AAACGGGTGC,1.27 ± 0.29
10,GACATCGGCA,1.03 ± 0.016
11,GTGGTGTGTT,1.05 ± 0.14
12,AACTGTTGTA,0.986 ± 0.0024
13,CGCTGCTAAT,1.58 ± 0.08
14,GGGGGGCCAT,1.01 ± 0.025
15,GGGGAGAAGG,0.981 ± 0.031
16,TGTTTAATGT,1.01 ± 0.019
17,TTCGGGTCCT,1.02 ± 0.031
18,TTCAAATTTT,1.01 ± 0.015
19,AGATGGGGGT,1.016 ± 0.0053
20,CAGGAGACTA,0.9979 ± 0.0094
21,GCGCCCATCT,1.02 ± 0.017
22,CGGGGACAGA,0.984 ± 0.041
23,GGGCTAGATG,1 ± 0.018
24,GAGTACCGAA,0.969 ± 0.031
25,AAAATAAAGG,0.976 ± 0.023

row,Sequence,switch fluorescence ratio
1,AAACTCGGAC,1.143 ± 0.0053
2,GAGGGGCCTC,1.03 ± 0.037
3,GGATAGGGGC,1.03 ± 0.054
4,ACTTGTCGCG,1.02 ± 0.033
5,TACTGCTCTA,1.022 ± 0.01
6,TACTGTGGGT,0.9726 ± 0.0035
7,GGGGGGTGTG,0.986 ± 0.025
8,AATAATAGCT,1.01 ± 0.041
9,GGGGAAATAT,0.981 ± 0.024
10,AGTGAGGATC,0.993 ± 0.032
11,GGTCGGGGGT,1.03 ± 0.039
12,TCAGAATTCA,1.01 ± 0.012
13,AAATTTGAAG,1.02 ± 0.012
14,TCAGATTTGG,0.9901 ± 0.006
15,TACCATGGCG,0.9983 ± 0.0058
16,GATGGTGGTG,1 ± 0.029
17,TAGAATTACT,1.05 ± 0.056
18,TCGGGTATCG,0.976 ± 0.037
19,CCATCAAATA,1.01 ± 0.015
20,TTGGGTTATG,1 ± 0.013
21,GGGGTATAGG,0.9746 ± 0.008
22,CGTGGGTGGT,1.0181 ± 0.00048
23,GTTAGCATTG,1 ± 0.029
24,TTATTTGATA,1 ± 0.034
25,AGCCTCTATA,1.012 ± 0.0066

row,Sequence,switch fluorescence ratio
1,GTCCGAGAAT,0.986 ± 0.064
2,TATCGGATGG,1.0207 ± 0.00094
3,AGGGACCTTA,1.04 ± 0.05
4,CGTCGTGATA,1.2 ± 0.014
5,GGTGCTATCT,0.992 ± 0.015
6,CCGTCGGTCG,1 ± 0.023
7,TTAATCAGGT,1.01 ± 0.016
8,TTAAGCCAGG,1.16 ± 0.14
9,GGGGATGCTC,1.03 ± 0.018
10,TAATGGGTTT,0.999 ± 0.062
11,TACTGTGTCT,0.98144 ± 0.00053
12,CCGGGCTTAG,1.28 ± 0.047
13,GGAGACAGGA,1.04 ± 0.012
14,TTTTTTCTAC,1.31 ± 0.67
15,TGGATTTCGC,1 ± 0.027
16,ATTGCTGGCG,0.939 ± 0.039
17,TTGGTTATCG,0.97068 ± 0.00069
18,AGCGTCAGTA,0.999 ± 0.014
19,ACCCGAGGTC,1.09 ± 0.015
20,TTGGTTGCGG,1.02 ± 0.024
21,GCTTGGATTG,1.01 ± 0.054
22,TTTATCAGTT,0.951 ± 0.035
23,TGGGGGTGGC,1.01 ± 0.052
24,GATATTAAGC,1.01 ± 0.026
25,ATTCGGAGGG,0.984 ± 0.011
